Among the data in patent US20260250404A1 are EC50 (read off the curve) values, retold here.

The test has as its target human FcγRIa on the cell surface (transfected CHO-S cells, M0/M1 macrophages, hMDM, FcγRI effector reporter cells) (human) (UniProt P12314). Put plainly: flow cytometry on CHO-S cells transiently expressing human FcγRIa, PE goat anti-human IgG F(ab')2, % PE+ cells.

Sequence of human FcγRIa on the cell surface (transfected CHO-S cells, M0/M1 macrophages, hMDM, FcγRI effector reporter cells) (human) (P12314 16-374): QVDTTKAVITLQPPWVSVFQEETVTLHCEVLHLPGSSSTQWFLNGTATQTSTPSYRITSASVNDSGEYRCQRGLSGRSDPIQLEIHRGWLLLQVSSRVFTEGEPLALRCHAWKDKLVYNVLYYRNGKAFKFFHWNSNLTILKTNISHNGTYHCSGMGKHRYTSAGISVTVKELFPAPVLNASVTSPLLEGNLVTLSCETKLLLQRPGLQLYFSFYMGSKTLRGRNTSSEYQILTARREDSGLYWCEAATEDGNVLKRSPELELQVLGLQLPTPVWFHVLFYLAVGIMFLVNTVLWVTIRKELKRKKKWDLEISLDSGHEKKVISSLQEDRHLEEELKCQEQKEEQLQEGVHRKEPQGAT

For cemiplimab (antibody), the concentration giving a half-maximal response (EC50 (read off the curve)) (as a rule, the concentration giving half of the maximal effect) was found to be 0.3 µg/mL.
